The record followed here is patent publication US20210115124A1 (Genentech, published 2021).

By Kd is commonly meant the concentration at which binding is half-saturated. The term koff denotes the first-order rate constant of dissociation. A high value points to a short-lived complex. Usually kon stands for the second-order rate constant of association.

T1: human VEGF (hVEGF) (human, UniProt P15692 181-395)
T1 construct: also called VEGF-A
T1 sequence: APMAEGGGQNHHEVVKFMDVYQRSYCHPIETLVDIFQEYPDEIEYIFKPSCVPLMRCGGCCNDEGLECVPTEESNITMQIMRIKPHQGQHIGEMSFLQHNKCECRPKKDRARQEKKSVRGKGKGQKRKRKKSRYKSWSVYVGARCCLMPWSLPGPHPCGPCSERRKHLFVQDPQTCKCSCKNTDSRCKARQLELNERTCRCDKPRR

B1: G6.31 HC-A60E (Fab, name in Kabat numbering, V domains shown)
VH: EVQLVESGGGLVQPGGSLRLSCAASGFTISDYWIHWVRQAPGKGLEWVAGITPAGGYTYYEDSVKGRFTISADTSKNTAYLQMNSLRAEDTAVYYCARFVFFLPYAMDYWGQGTLVTVSS
VL: DIQMTQSPSSLSASVGDRVTITCRASQDVSTAVAWYQQKPGKAPKLLIYSASFLYSGVPSRFSGSGSGTDFTLTISSLQPEDFATYYCQQGYGNPFTFGQGTKVEIK
notes: Fab
B2: G6.31 HC-T68K (Fab, name in Kabat numbering, V domains shown)
VH: B1 VH with E61A, T69K
VL: B1 VL
notes: Fab
B3: G6.31 HC-Y58E (Fab, name in Kabat numbering, V domains shown)
VH: B1 VH with Y59E, E61A
VL: B1 VL
notes: Fab
B4: G6.31 HC-T28E (Fab, name in Kabat numbering, V domains shown)
VH: B1 VH with T28E, E61A
VL: B1 VL
notes: Fab
B5: G6.31 LC-G57E (Fab, V domains shown)
VH: B1 VH with E61A
VL: B1 VL with G57E
notes: Fab
B6: G6.31 HC-A71E (Fab, name in Kabat numbering, V domains shown)
VH: B1 VH with E61A, A72E
VL: B1 VL
notes: Fab
B7: G6.31 HC-K75E (Fab, name in Kabat numbering, V domains shown)
VH: B1 VH with E61A, K76E
VL: B1 VL
notes: Fab
B8: G6.31 HC-S30E (Fab, name in Kabat numbering, V domains shown)
VH: B1 VH with S30E, E61A
VL: B1 VL
notes: Fab
B9: G6.31 HC-Q81E (Fab, name in Kabat numbering, V domains shown)
VH: B1 VH with E61A, Q82E
VL: B1 VL
notes: Fab
B10: G6.31 HC-K64E (Fab, name in Kabat numbering, V domains shown)
VH: B1 VH with E61A, K65E
VL: B1 VL
notes: Fab
B11: G6.31 LC-A51E (Fab, V domains shown)
VH: B1 VH with E61A
VL: B1 VL with A51E
notes: Fab
B12: G6.31 HC-P41E (Fab, name in Kabat numbering, V domains shown)
VH: B1 VH with P41E, E61A
VL: B1 VL
notes: Fab
B13: G6.31 HC-P41R (Fab, name in Kabat numbering, V domains shown)
VH: B1 VH with P41R, E61A
VL: B1 VL
notes: Fab
B14: G6.31 HC-T68E (Fab, name in Kabat numbering, V domains shown)
VH: B1 VH with E61A, T69E
VL: B1 VL
notes: Fab
B15: G6.31 LC-P59E (Fab, V domains shown)
VH: B1 VH with E61A
VL: B1 VL with P59E
notes: Fab
B16: G6.31 HC-T73E (Fab, name in Kabat numbering, V domains shown)
VH: B1 VH with E61A, T74E
VL: B1 VL
notes: Fab
B17: G6.31 LC-Q27E (Fab, V domains shown)
VH: B1 VH with E61A
VL: B1 VL with Q27E
notes: Fab
B18: G6.31 HC-S74E (Fab, name in Kabat numbering, V domains shown)
VH: B1 VH with E61A, S75E
VL: B1 VL
notes: Fab
B19: G6.31 HC-Y56K (Fab, name in Kabat numbering, V domains shown)
VH: B1 VH with Y57K, E61A
VL: B1 VL
notes: Fab
B20: G6.31 HC-G65E (Fab, name in Kabat numbering, V domains shown)
VH: B1 VH with E61A, G66E
VL: B1 VL
notes: Fab
B21: G6.31 HC-T28K (Fab, name in Kabat numbering, V domains shown)
VH: B1 VH with T28K, E61A
VL: B1 VL
notes: Fab
B22: G6.31 HC-K43E (Fab, name in Kabat numbering, V domains shown)
VH: B1 VH with K43E, E61A
VL: B1 VL
notes: Fab
B23: G6.31 HC-T77K (Fab, name in Kabat numbering, V domains shown)
VH: B1 VH with E61A, T78K
VL: B1 VL
notes: Fab
B24: G6.31 HC-S82bE (Fab, name in Kabat numbering, V domains shown)
VH: B1 VH with E61A, S85E
VL: B1 VL
notes: Fab
B25: G6.31 LC-G93E (Fab, V domains shown)
VH: B1 VH with E61A
VL: B1 VL with G93E
notes: Fab
B26: G6.31 LC-P40E (Fab, V domains shown)
VH: B1 VH with E61A
VL: B1 VL with P40E
notes: Fab
B27: G6.31 HC-N76E (Fab, name in Kabat numbering, V domains shown)
VH: B1 VH with E61A, N77E
VL: B1 VL
notes: Fab
B28: G6.31 HC-T77E (Fab, name in Kabat numbering, V domains shown)
VH: B1 VH with E61A, T78E
VL: B1 VL
notes: Fab

Residue numbers refer to the chain shown, from its start.

The assay concerns the target T1, human VEGF (hVEGF). As to the kind of experiment: SPR single-cycle.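 Note: fab variants injected over hVEGF immobilized on a CM5 chip (Biacore T200), threefold dilution series from 0.02 to 50 nM, kinetics fitted with a 1:1 Langmuir model.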
Source text: To determine the binding affinity of selected Fab variants, SPR measurement with a BIACORE® T200 instrument was used. Briefly, series S sensor chip CM5 was activated with 1-ethyl-3-(3-dimethylaminopropyl) carbodiimide (EDC) and N-hydroxysuccinimide (NHS) reagents according to the supplier's instructions, and human VEGF (hVEGF) was coupled to achieve 50-80 response units (RU), then following by blocking un-reacted groups with 1M ethanolamine.
Three-fold serial dilutions of Fab in HBS-P buffer (0.01 M HEPES pH 7.4, 0.15 M NaCl, 0.005% surfactant P20) from low (0.02 nM) to high (50 nM) were injected (flow rate: 30 μl/min). The binding responses on hVEGF were corrected by subtracting of RU from a blank flow cell. The sensorgram was recorded and subject to reference and buffer subtraction before evaluating by BIACORE® T200 Evaluation Software (version 2.0). Association rates (kₒₙ) and dissociation rates (koff) were calculated using a simple one-to-one Langmuir binding model. The equilibrium dissociation constant (Kd) was calculated as the ratio koff/kₒₙ.
In the case of B1, the “Fold change (relative to G6.31)” value was found to be 1.6 fold, the Kd worked out at 1.08 nM, the koff was found to be 0.000565 s⁻¹ and the kon came to 524000 M⁻¹ s⁻¹.
In the same order, the values of B2 are 1.3 fold, 1.29 nM, 0.000513 s⁻¹ and 397000 M⁻¹ s⁻¹.
Taken in the same sequence, the figures for B3 were 2.7 fold, 0.62 nM, 0.000508 s⁻¹ and 820000 M⁻¹ s⁻¹.
In the case of B4, the “Fold change (relative to G6.31)” value was 3 fold, the dissociation constant (Kd) was found to be 0.566 nM, the koff turned out to be 0.000352 s⁻¹ and the kon stood at 621000 M⁻¹ s⁻¹.
Taken in the same sequence, the figures for B5 were 1.7 fold, 0.974 nM, 0.000418 s⁻¹ and 429000 M⁻¹ s⁻¹.
On to B6, for which the “Fold change (relative to G6.31)” value was determined as 1.1 fold, the Kd came to 1.48 nM, the koff turned out to be 0.000379 s⁻¹ and the kon is 257000 M⁻¹ s⁻¹.
In the case of B7, the “Fold change (relative to G6.31)” value came to 0.8 fold, the equilibrium dissociation constant (Kd) was determined as 2.04 nM, the off-rate constant (koff) is 0.000444 s⁻¹ and the kon is 217000 M⁻¹ s⁻¹.
Turning to B8, the “Fold change (relative to G6.31)” value was 0.2 fold, the Kd turned out to be 7.1 nM, the koff is 0.000558 s⁻¹ and the kon was determined as 78500 M⁻¹ s⁻¹.
In the same order, the values of B9 are 0.8 fold, 2.2 nM, 0.000495 s⁻¹ and 225000 M⁻¹ s⁻¹.
Turning to B10, the “Fold change (relative to G6.31)” value was found to be 2.4 fold, the Kd amounted to 0.715 nM, the koff is 0.000395 s⁻¹ and the kon was 552000 M⁻¹ s⁻¹.
As to B11, the “Fold change (relative to G6.31)” value is 0.6 fold, the Kd is 2.68 nM, the koff was 0.000462 s⁻¹ and the kon was 172000 M⁻¹ s⁻¹.
For the molecule B12, the “Fold change (relative to G6.31)” value is 0.5 fold; the affinity, expressed as Kd, was 3.6 nM; the koff is 0.000548 s⁻¹; the kon was 152000 M⁻¹ s⁻¹.
Taken in the same sequence, the figures for B13 were 1.8 fold, 0.97 nM, 0.000554 s⁻¹ and 571000 M⁻¹ s⁻¹.
Taken in the same sequence, the figures for B14 were 0.8 fold, 2.05 nM, 0.00044 s⁻¹ and 215000 M⁻¹ s⁻¹.
For B15, the “Fold change (relative to G6.31)” value turned out to be 1.1 fold, the Kd was determined as 1.56 nM, the off-rate constant (koff) came out at 0.000444 s⁻¹ and the kon is 284000 M⁻¹ s⁻¹.
Taken in the same sequence, the figures for B16 were 2.2 fold, 0.788 nM, 0.000434 s⁻¹ and 550000 M⁻¹ s⁻¹.
In the case of B17, the “Fold change (relative to G6.31)” value stood at 0.9 fold, the Kd stood at 1.96 nM, the koff turned out to be 0.00045 s⁻¹ and the kon amounted to 230000 M⁻¹ s⁻¹.
In the same order, the values of B18 are 0.8 fold, 2.11 nM, 0.000499 s⁻¹ and 236000 M⁻¹ s⁻¹.
Taken in the same sequence, the figures for B19 were 1.8 fold, 0.965 nM, 0.000699 s⁻¹ and 724000 M⁻¹ s⁻¹.
Taken in the same sequence, the figures for B20 were 1.1 fold, 1.56 nM, 0.000472 s⁻¹ and 302000 M⁻¹ s⁻¹.
Turning to B21, the “Fold change (relative to G6.31)” value was found to be 4 fold, the Kd turned out to be 0.42 nM, the koff was 0.00041 s⁻¹ and the kon was 975000 M⁻¹ s⁻¹.
As to B22, the “Fold change (relative to G6.31)” value was 1.3 fold, the Kd amounted to 1.27 nM, the koff was determined as 0.000482 s⁻¹ and the kon came out at 380000 M⁻¹ s⁻¹.
On to B23, for which the “Fold change (relative to G6.31)” value was found to be 7.7 fold, the Kd was determined as 0.222 nM, the off-rate constant (koff) turned out to be 0.00045 s⁻¹ and the kon stood at 2.03e+06 M⁻¹ s⁻¹.
Turning to B24, the “Fold change (relative to G6.31)” value was 1.7 fold, the Kd came out at 0.991 nM, the koff was determined as 0.000433 s⁻¹ and the kon turned out to be 437000 M⁻¹ s⁻¹.
For the molecule B25, the “Fold change (relative to G6.31)” value came out at 0.3 fold, the Kd worked out at 5.98 nM, the koff was determined as 0.00149 s⁻¹ and the kon worked out at 248000 M⁻¹ s⁻¹.
As for B26, the “Fold change (relative to G6.31)” value was determined as 0.1 fold, binding was characterised by a dissociation constant (Kd) of 17.9 nM, the off-rate (koff) was found to be 0.000541 s⁻¹ and the kon was determined as 30300 M⁻¹ s⁻¹.
As for B27, the “Fold change (relative to G6.31)” value was found to be 1 fold, the Kd turned out to be 1.72 nM, the koff is 0.000467 s⁻¹ and the kon is 271000 M⁻¹ s⁻¹.
B28: the “Fold change (relative to G6.31)” value turned out to be 0.9 fold, the dissociation constant (Kd) stood at 1.93 nM, the koff is 0.000477 s⁻¹ and the kon was 248000 M⁻¹ s⁻¹.
